These results are taken from doi:10.1101/2021.08.21.457230.

The term stoichiometry N denotes a count of units in the complex or per binding partner.

For the assay, the target named is T1, human SLC44A1 (human), Q8WWI5.
T1 chain: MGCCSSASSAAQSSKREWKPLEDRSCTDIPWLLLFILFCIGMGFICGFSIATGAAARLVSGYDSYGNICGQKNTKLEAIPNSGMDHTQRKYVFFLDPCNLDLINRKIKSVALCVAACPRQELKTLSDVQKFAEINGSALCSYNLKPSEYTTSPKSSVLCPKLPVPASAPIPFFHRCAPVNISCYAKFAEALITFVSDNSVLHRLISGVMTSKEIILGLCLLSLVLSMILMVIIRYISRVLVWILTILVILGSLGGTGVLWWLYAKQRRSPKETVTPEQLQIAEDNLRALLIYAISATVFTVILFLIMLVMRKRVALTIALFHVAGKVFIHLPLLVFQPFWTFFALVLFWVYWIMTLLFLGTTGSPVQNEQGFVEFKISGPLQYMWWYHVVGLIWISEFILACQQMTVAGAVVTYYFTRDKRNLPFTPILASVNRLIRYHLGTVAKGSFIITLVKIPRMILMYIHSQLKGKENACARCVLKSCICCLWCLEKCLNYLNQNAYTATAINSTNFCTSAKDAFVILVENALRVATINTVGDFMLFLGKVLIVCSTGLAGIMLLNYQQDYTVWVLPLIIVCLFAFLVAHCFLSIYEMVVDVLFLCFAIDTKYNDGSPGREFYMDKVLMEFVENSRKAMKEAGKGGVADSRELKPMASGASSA
Briefly: cryo-EM structure. The following applies: remark: other sources report otherwise.

B1: human SLC44A1, Q8WWI5 1-657 (natural protein)
chain: MGCCSSASSAAQSSKREWKPLEDRSCTDIPWLLLFILFCIGMGFICGFSIATGAAARLVSGYDSYGNICGQKNTKLEAIPNSGMDHTQRKYVFFLDPCNLDLINRKIKSVALCVAACPRQELKTLSDVQKFAEINGSALCSYNLKPSEYTTSPKSSVLCPKLPVPASAPIPFFHRCAPVNISCYAKFAEALITFVSDNSVLHRLISGVMTSKEIILGLCLLSLVLSMILMVIIRYISRVLVWILTILVILGSLGGTGVLWWLYAKQRRSPKETVTPEQLQIAEDNLRALLIYAISATVFTVILFLIMLVMRKRVALTIALFHVAGKVFIHLPLLVFQPFWTFFALVLFWVYWIMTLLFLGTTGSPVQNEQGFVEFKISGPLQYMWWYHVVGLIWISEFILACQQMTVAGAVVTYYFTRDKRNLPFTPILASVNRLIRYHLGTVAKGSFIITLVKIPRMILMYIHSQLKGKENACARCVLKSCICCLWCLEKCLNYLNQNAYTATAINSTNFCTSAKDAFVILVENALRVATINTVGDFMLFLGKVLIVCSTGLAGIMLLNYQQDYTVWVLPLIIVCLFAFLVAHCFLSIYEMVVDVLFLCFAIDTKYNDGSPGREFYMDKVLMEFVENSRKAMKEAGKGGVADSRELKPMASGASSA
As to B1, the stoichiometry N was determined as 2.
